Measured values taken from patent EP2545075B1 (NovelMed Therapeutics, Inc., dated 2020).

How the values were obtained:
human properdin [1] = target: T1, human properdin (human, UniProt P27918 28-469); test: cell-based or functional assay
human properdin [2] = target: T1, human properdin; test: Properdin ELISA
human properdin [3] = target: T1, human properdin; test: Competition ELISA: properdin (50 nM) plus antibody on C3b-coated wells
human properdin [4] = target: T1, human properdin; test: Properdin binding assay (Fig. 27)

T1 sequence (P27918 28-469 limits assumed): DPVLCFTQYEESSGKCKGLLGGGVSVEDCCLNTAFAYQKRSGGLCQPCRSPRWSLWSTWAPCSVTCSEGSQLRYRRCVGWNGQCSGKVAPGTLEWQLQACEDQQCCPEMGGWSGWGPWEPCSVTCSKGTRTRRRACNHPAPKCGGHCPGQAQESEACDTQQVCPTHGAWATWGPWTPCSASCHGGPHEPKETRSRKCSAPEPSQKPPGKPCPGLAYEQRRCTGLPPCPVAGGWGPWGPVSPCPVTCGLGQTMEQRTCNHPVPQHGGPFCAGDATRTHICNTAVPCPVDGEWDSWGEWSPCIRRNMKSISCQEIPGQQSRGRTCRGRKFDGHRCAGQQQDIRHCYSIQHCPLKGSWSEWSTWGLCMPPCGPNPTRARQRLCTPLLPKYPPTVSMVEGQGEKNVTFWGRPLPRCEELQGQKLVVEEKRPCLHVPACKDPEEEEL

B1: NM9401-IgG (antibody, V domains shown)
VH: QVQLQQSAPELARPGASVKMSCTASGYIFTNYPIHWVKQRPGQGLEWIGFIDPGGGYDEPDERFRDRATLTADKSSSTAYMQLSSLTSEDSAIYYCARRGGGYYLDYWGQGTTLTVSS
VL: DIQMTQTTSSLSASLGDRVTISCRASQDISFFLNWYQQKPDGTVKLLIYYTSRYHSGVPSRFSGSGSGTDFSLTINNLEQEDFATYFCQHGNTLPWTFGGGTKLEIK
modifications: Biotinylated in Example 5 (site not stated).
- IC50 of inhibition in erythrocyte lysis assay using rabbit erythrocytes (human properdin [1]): 20 to 30 nM

B2: BAP010_1 (antibody, IgG1, V domains shown)
VH: QVQLQQSAPELARPGASVKMSCTASGYIFTNYPIHWVKQRPGQGLEWIGFIDPGGGYDEPDERFRDRATLTADKSSSTAYMQLSSLTSEDSAIYYCARRGGGYYLDYWGQGTTLTVSS
VL: DIQMTQTTSSLSASLGDRVTISCRASQDISFFLNWYQQKPDGTVKLLIYYTSRYHSGVPSRFSGSGSGTDFSLTINNLEQEDFATYFCQHGNTLPWTFGGGTKLEIK
notes: Chimeric full-length IgG1/kappa carrying the variable domains of NM9401, expressed in CHO-S cells; also called chimeric anti-properdin monoclonal antibody; recombinant antibody BAP010_1
- IC50 of inhibition in erythrocyte lysis assay using rabbit erythrocytes (human properdin [1]): 20 to 30 nM
- Kd (human properdin [2]): ~0.054 nM

B3: NM9401-F(ab')2 (other)
VH: QVQLQQSAPELARPGASVKMSCTASGYIFTNYPIHWVKQRPGQGLEWIGFIDPGGGYDEPDERFRDRATLTADKSSSTAYMQLSSLTSEDSAIYYCARRGGGYYLDYWGQGTTLTVSS
VL: DIQMTQTTSSLSASLGDRVTISCRASQDISFFLNWYQQKPDGTVKLLIYYTSRYHSGVPSRFSGSGSGTDFSLTINNLEQEDFATYFCQHGNTLPWTFGGGTKLEIK
modifications: F(ab')2 has two identical arms joined by hinge disulfides. The letters give one arm's variable domains.
notes: F(ab')2 fragment of the murine antibody NM9401; also called anti-properdin F(ab')2
- IC50 (human properdin [3]): 29 nM
- molar ratio of antibody to properdin (human properdin [3]): 0.5

B4: NM9401-Fab (Fab, V domains shown)
VH: QVQLQQSAPELARPGASVKMSCTASGYIFTNYPIHWVKQRPGQGLEWIGFIDPGGGYDEPDERFRDRATLTADKSSSTAYMQLSSLTSEDSAIYYCARRGGGYYLDYWGQGTTLTVSS
VL: DIQMTQTTSSLSASLGDRVTISCRASQDISFFLNWYQQKPDGTVKLLIYYTSRYHSGVPSRFSGSGSGTDFSLTINNLEQEDFATYFCQHGNTLPWTFGGGTKLEIK
notes: Fab fragment of the murine antibody NM9401; also called anti-properdin Fab
- IC50 (human properdin [3]): 72 nM
- molar ratio of antibody to properdin (human properdin [3]): 1.2

B5: BAP010hum02 (antibody, human IgG1, V domains shown)
VH: QVQLQESGPGLVKPSQTLSLTCTVSGYIFTNYPIHWVRQAPGKGLEWVSFIDPGGGYDEPDERFRDRVTISVDTSKNQFSLKLSSVTAADTAVYYCARRGGGYYLDYWGQG
VL: EIVLTQSPATLSLSPGERATLSCRASQDISFFLNWFQQRPGQSPRRLIYYTSRYHSGIPPRFSGSGYGTDFTLTINNIESEDAAYYFCQHGNTLPWTFGQG
notes: Humanized clone; The variable domains were cloned into the mammalian expression vector used for human IgG1/kappa; also called BAP010hum02_HC
- binding result (human properdin [4]): binds

B6: BAP010hum03 (antibody, human IgG1, V domains shown)
VH: EVQLVQSGAEVKKPGESLRISCKGSGYIFTNYPIHWIRQSPSRGLEWLGFIDPGGGYDEPDERFRDRVTISADKSISTAYLQWSSLKASDTAMYYCARRGGGYYLDYWGQG
VL: DIQMTQSPSSLSASVGDRVTITCRASQDISFFLNWYQQKPGKAPKLLIYYTSRYHSGVPSRFSGSGSGTEFTLTISSLQSEDFAVYYCQHGNTLPWTFGQG
notes: Humanized clone; The variable domains were cloned into the mammalian expression vector used for human IgG1/kappa; also called BAP010hum03_HC
- binding result (human properdin [4]): binds

B7: BAP010hum10 (antibody, human IgG1, V domains shown)
VH: QVQLQESGPGLVKPSQTLSLTCTVSGYIFTNYPIHWVRQATGQGLEWMGFIDPGGGYDEPDERFRDRVTITADKSTSTAYMELSSLRSEDTAVYYCARRGGGYYLDYWGQG
VL: DIQMTQSPSSLSASVGDRVTITCRASQDISFFLNWYQQKPGKAPKLLIYYTSRYHSGIPPRFSGSGYGTEFTFTISSLEAEDAATYYCQHGNTLPWTFGQG
notes: Humanized clone; The variable domains were cloned into the mammalian expression vector used for human IgG1/kappa; also called BAP010hum10_HC
- binding result (human properdin [4]): binds
